Test system: proteins that co-immunoprecipitated with DUX4-CTD constructs expressed in MB135 myoblasts
Assay: LC-MS of proteins co-immunoprecipitated with DUX4-CTD (Table 1) and western validation
Assay type: binding, human
Parameters: key to 4. mL1dL2 + Dox + IFNG / 4. + IFNG mix / 4. longCTD + Dox + IFNG / 3. + IFNg + Dox longCTD / 3. + Dox longCTD / 3. + IFNG longCTD: peptide-spectrum matches (PSMs) per protein
Details: for 4. longCTD + Dox + IFNG: LC-MS counts of the listed protein co-immunoprecipitated with DUX4-CTD bait longCTD, experiment 4, Dox + IFNG; for 3. + IFNg + Dox longCTD / 3. + Dox longCTD: bait longCTD; for 3. + IFNg + Dox longCTD: experiment 3, IFNg + Dox; for SUM of PSMS: sum over all samples; for 3. + Dox longCTD: experiment 3, Dox only
Summary of the method: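 Two independent experiments compared uninduced, doxycycline and doxycycline+IFNG MB135iDUX4-CTD (plus MB135iDUX4mL1dL2) myoblasts. Anti-FLAG pulldowns (3 h, 4 °C) were eluted in LDS buffer for western validation or with FLAG peptide for trypsin digestion and Orbitrap LC-MS; hits needed ≥2 PSMs in both experiments, ranked by total PSMs.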

B1: O00469 (protein, UniProt O00469 1-737, looked up)
chain: MGGCTVKPQLLLLALVLHPWNPCLGADSEKPSSIPTDKLLVITVATKESDGFHRFMQSAKYFNYTVKVLGQGEEWRGGDGINSIGGGQKVRLMKEVMEHYADQDDLVVMFTECFDVIFAGGPEEVLKKFQKANHKVVFAADGILWPDKRLADKYPVVHIGKRYLNSGGFIGYAPYVNRIVQQWNLQDNDDDQLFYTKVYIDPLKREAINITLDHKCKIFQTLNGAVDEVVLKFENGKARAKNTFYETLPVAINGNGPTKILLNYFGNYVPNSWTQDNGCTLCEFDTVDLSAVDVHPNVSIGVFIEQPTPFLPRFLDILLTLDYPKEALKLFIHNKEVYHEKDIKVFFDKAKHEIKTIKIVGPEENLSQAEARNMGMDFCRQDEKCDYYFSVDADVVLTNPRTLKILIEQNRKIIAPLVTRHGKLWSNFWGALSPDGYYARSEDYVDIVQGNRVGVWNVPYMANVYLIKGKTLRSEMNERNYFVRDKLDPDMALCRNAREMGVFMYISNRHEFGRLLSTANYNTSHYNNDLWQIFENPVDWKEKYINRDYSKIFTENIVEQPCPDVFWFPIFSEKACDELVEEMEHYGKWSGGKHHDSRISGGYENVPTDDIHMKQVDLENVWLHFIREFIAPVTLKVFAGYYTKGFALLNFVVKYSPERQRSLRPHHDASTFTINIALNNVGEDFQGGGCKFLRYNCSIESPRKGWSFMHPGRLTHLHEGLPVKNGTRYIAVSFIDP
modifications: full-length
- 4. longCTD + Dox + IFNG: 7
- 3. + IFNg + Dox longCTD: 3
- SUM of PSMS: 25

B2: A0A087WW87 (protein, UniProt A0A087WW87 1-121, looked up)
chain: MRLPAQLLGLLMLWVPGSSEDIVMTQTPLSLPVTPGEPASISCRSSQSLLDSDDGNTYLDWYLQKPGQSPQLLIYTLSYRASGVPDRFSGSGSGTDFTLKISRVEAEDVGVYYCMQRIEFP
modifications: full-length
- 4. longCTD + Dox + IFNG: 5
- 3. + Dox longCTD: 2
- 3. + IFNg + Dox longCTD: 2
- SUM of PSMS: 15

B3: O95782 (protein, UniProt O95782 1-977, looked up)
chain: MPAVSKGDGMRGLAVFISDIRNCKSKEAEIKRINKELANIRSKFKGDKALDGYSKKKYVCKLLFIFLLGHDIDFGHMEAVNLLSSNKYTEKQIGYLFISVLVNSNSELIRLINNAIKNDLASRNPTFMCLALHCIANVGSREMGEAFAADIPRILVAGDSMDSVKQSAALCLLRLYKASPDLVPMGEWTARVVHLLNDQHMGVVTAAVSLITCLCKKNPDDFKTCVSLAVSRLSRIVSSASTDLQDYTYYFVPAPWLSVKLLRLLQCYPPPEDAAVKGRLVECLETVLNKAQEPPKSKKVQHSNAKNAILFETISLIIHYDSEPNLLVRACNQLGQFLQHRETNLRYLALESMCTLASSEFSHEAVKTHIDTVINALKTERDVSVRQRAADLLYAMCDRSNAKQIVSEMLRYLETADYAIREEIVLKVAILAEKYAVDYSWYVDTILNLIRIAGDYVSEEVWYRVLQIVTNRDDVQGYAAKTVFEALQAPACHENMVKVGGYILGEFGNLIAGDPRSSPPVQFSLLHSKFHLCSVATRALLLSTYIKFINLFPETKATIQGVLRAGSQLRNADVELQQRAVEYLTLSSVASTDVLATVLEEMPPFPERESSILAKLKRKKGPGAGSALDDGRRDPSSNDINGGMEPTPSTVSTPSPSADLLGLRAAPPPAAPPASAGAGNLLVDVFDGPAAQPSLGPTPEEAFLSELEPPAPESPMALLADPAPAADPGPEDIGPPIPEADELLNKFVCKNNGVLFENQLLQIGVKSEFRQNLGRMYLFYGNKTSVQFQNFSPTVVHPGDLQTQLAVQTKRVAAQVDGGAQVQQVLNIECLRDFLTPPLLSVRFRYGGAPQALTLKLPVTINKFFQPTEMAAQDFFQRWKQLSLPQQEAQKIFKANHPMDAEVTKAKLLGFGSALLDNVDPNPENFVGAGIIQTKALQVGCLLRLEPNAQAQMYRLTLRTSKEPVSRHLCELLAQQF
modifications: full-length
- 4. longCTD + Dox + IFNG: 2
- 3. + Dox longCTD: 10
- 3. + IFNg + Dox longCTD: 31
- SUM of PSMS: 48

B4: Q00325 (protein, UniProt Q00325 1-362, looked up)
chain: MFSSVAHLARANPFNTPHLQLVHDGLGDLRSSSPGPTGQPRRPRNLAAAAVEEQYSCDYGSGRFFILCGLGGIISCGTTHTALVPLDLVKCRMQVDPQKYKGIFNGFSVTLKEDGVRGLAKGWAPTFLGYSMQGLCKFGFYEVFKVLYSNMLGEENTYLWRTSLYLAASASAEFFADIALAPMEAAKVRIQTQPGYANTLRDAAPKMYKEEGLKAFYKGVAPLWMRQIPYTMMKFACFERTVEALYKFVVPKPRSECSKPEQLVVTFVAGYIAGVFCAIVSHPADSVVSVLNKEKGSSASLVLKRLGFKGVWKGLFARIIMIGTLTALQWFIYDSVKVYFRLPRPPPPEMPESLKKKLGLTQ
modifications: full-length
- 4. longCTD + Dox + IFNG: 2
- 3. + IFNg + Dox longCTD: 1
- SUM of PSMS: 8

B5: P05141 (protein, UniProt P05141 1-298, looked up)
chain: MTDAAVSFAKDFLAGGVAAAISKTAVAPIERVKLLLQVQHASKQITADKQYKGIIDCVVRIPKEQGVLSFWRGNLANVIRYFPTQALNFAFKDKYKQIFLGGVDKRTQFWLYFAGNLASGGAAGATSLCFVYPLDFARTRLAADVGKAGAEREFRGLGDCLVKIYKSDGIKGLYQGFNVSVQGIIIYRAAYFGIYDTAKGMLPDPKNTHIVISWMIAQTVTAVAGLTSYPFDTVRRRMMMQSGRKGTDIMYTGTLDCWRKIARDEGGKAFFKGAWSNVLRGMGGAFVLVLYDEIKKYT
modifications: full-length
- 4. longCTD + Dox + IFNG: 6
- 3. + IFNg + Dox longCTD: 3
- SUM of PSMS: 9

B6: Q96MG2 (protein, UniProt Q96MG2 1-331, looked up)
chain: MSMTTRAWEELDGGLGSCQALEDHSALAETQEDRASATPRLADSGSVPHDSQVAEGPSVDTRPKKMEKEPAARGTPGTGKERLKAGASPRSVPARKKAQTAPPLQPPPPPPALSEELPWGDLSLNKCLVLASLVALLGSAFQLCRDAVPGEAALQARVPEPWVPPSSAPREPSSPLPKFEAQAPPSAPPAPRAEAEVRPKIPGSREAAENDEEEPGEATGEAVREDRVTLADRGPKERPRREGKPRKEKPRKEERPKKERPRKEERPRAAREPREALPQRWESREGGHRPWARDSRDAEPRKKQAWVSPRRPDEEQRPGSRQKLRAGKGRD
modifications: full-length
- 4. longCTD + Dox + IFNG: 3
- 3. + Dox longCTD: 4
- 3. + IFNg + Dox longCTD: 10
- SUM of PSMS: 18

B7: P25705 (protein, UniProt P25705 1-553, looked up)
chain: MLSVRVAAAVVRALPRRAGLVSRNALGSSFIAARNFHASNTHLQKTGTAEMSSILEERILGADTSVDLEETGRVLSIGDGIARVHGLRNVQAEEMVEFSSGLKGMSLNLEPDNVGVVVFGNDKLIKEGDIVKRTGAIVDVPVGEELLGRVVDALGNAIDGKGPIGSKTRRRVGLKAPGIIPRISVREPMQTGIKAVDSLVPIGRGQRELIIGDRQTGKTSIAIDTIINQKRFNDGSDEKKKLYCIYVAIGQKRSTVAQLVKRLTDADAMKYTIVVSATASDAAPLQYLAPYSGCSMGEYFRDNGKHALIIYDDLSKQAVAYRQMSLLLRRPPGREAYPGDVFYLHSRLLERAAKMNDAFGGGSLTALPVIETQAGDVSAYIPTNVISITDGQIFLETELFYKGIRPAINVGLSVSRVGSAAQTRAMKQVAGTMKLELAQYREVAAFAQFGSDLDAATQQLLSRGVRLTELLKQGQYSPMAIEEQVAVIYAGVRGYLDKLEPSKITKFENAFLSHVVSQHQALLGTIRADGKISEQSDAKLKEIVTNFLAGFEA
modifications: full-length
- 4. longCTD + Dox + IFNG: 4
- 3. + Dox longCTD: 1
- 3. + IFNg + Dox longCTD: 2
- SUM of PSMS: 17

B8: O43175 (protein, UniProt O43175 1-533, looked up)
chain: MAFANLRKVLISDSLDPCCRKILQDGGLQVVEKQNLSKEELIAELQDCEGLIVRSATKVTADVINAAEKLQVVGRAGTGVDNVDLEAATRKGILVMNTPNGNSLSAAELTCGMIMCLARQIPQATASMKDGKWERKKFMGTELNGKTLGILGLGRIGREVATRMQSFGMKTIGYDPIISPEVSASFGVQQLPLEEIWPLCDFITVHTPLLPSTTGLLNDNTFAQCKKGVRVVNCARGGIVDEGALLRALQSGQCAGAALDVFTEEPPRDRALVDHENVISCPHLGASTKEAQSRCGEEIAVQFVDMVKGKSLTGVVNAQALTSAFSPHTKPWIGLAEALGTLMRAWAGSPKGTIQVITQGTSLKNAGNCLSPAVIVGLLKEASKQADVNLVNAKLLVKEAGLNVTTSHSPAAPGEQGFGECLLAVALAGAPYQAVGLVQGTTPVLQGLNGAVFRPEVPLRRDLPLLLFRTQTSDPAMLPTMIGLLAEAGVRLLSYQTSLVSDGETWHVMGISSLLPSLEAWKQHVTEAFQFHF
modifications: full-length
- 4. longCTD + Dox + IFNG: 1
- 3. + Dox longCTD: 1
- 3. + IFNg + Dox longCTD: 3
- SUM of PSMS: 6

B9: P06702 (protein, UniProt P06702 1-114, looked up)
chain: MTCKMSQLERNIETIINTFHQYSVKLGHPDTLNQGEFKELVRKDLQNFLKKENKNEKVIEHIMEDLDTNADKQLSFEEFIMLMARLTWASHEKMHEGDEGPGHHHKPGLGEGTP
modifications: full-length
- 3. + Dox longCTD: 1
- 3. + IFNg + Dox longCTD: 1
- SUM of PSMS: 4

B10: O43865 (protein, UniProt O43865 1-530, looked up)
chain: MSMPDAMPLPGVGEELKQAKEIEDAEKYSFMATVTKAPKKQIQFADDMQEFTKFPTKTGRRSLSRSISQSSTDSYSSAASYTDSSDDEVSPREKQQTNSKGSSNFCVKNIKQAEFGRREIEIAEQDMSALISLRKRAQGEKPLAGAKIVGCTHITAQTAVLIETLCALGAQCRWSACNIYSTQNEVAAALAEAGVAVFAWKGESEDDFWWCIDRCVNMDGWQANMILDDGGDLTHWVYKKYPNVFKKIRGIVEESVTGVHRLYQLSKAGKLCVPAMNVNDSVTKQKFDNLYCCRESILDGLKRTTDVMFGGKQVVVCGYGEVGKGCCAALKALGAIVYITEIDPICALQACMDGFRVVKLNEVIRQVDVVITCTGNKNVVTREHLDRMKNSCIVCNMGHSNTEIDVTSLRTPELTWERVRSQVDHVIWPDGKRVVLLAEGRLLNLSCSTVPTFVLSITATTQALALIELYNAPEGRYKQDVYLLPKKMDEYVASLHLPSFDAHLTELTDDQAKYLGLNKNGPFKPNYYRY
modifications: full-length
- 3. + Dox longCTD: 7
- 3. + IFNg + Dox longCTD: 11
- SUM of PSMS: 19
